According to publication PMC10557622 (bioRxiv, 2023):

B1: purified BANF1 (natural protein)
chain: MTTSQKHRDFVAEPMGEKPVGSLAGIGEVLGKKLEERGFDKAYVVLGQFLVLKKDEDLFREWLKDTCGANAKQSRDCFGCLREWCDAFL
B2: recombinant Human EMD protein with N-terminal His-tag (natural protein)
chain: MDNYADLSDTELTTLLRRYNIPHGPVVGSTRRLYEKKIFEYETQRRRLSPPSSSAASSYSFSDLNSTRGDADMYDLPKKEDALLYQSKGYNDDYYEESYFTTRTYGEPESAGPSRAVRQSVTSFPDADAFHHQVHDDDLLSSSEEECKDRERPMYGRDSAYQSITHYRPVSASRSSLDLSYYPTSSSTSFMSSSSSSSSWLTRRAIRPENRAPGAGLGQDRQVPLWGQLLLFLVFVIVLFFIYHFMQAEEGNPF

Experiments:
[1] = biological target: CENP-A/H4 (UniProt P49450;P62805); test: BLI
[2] = biological target: 6xHis-MBP-CENP-C 1-600-SpyCatcher (UniProt Q03188 1-600); test: BLI
Chain of 6xHis-MBP-CENP-C 1-600-SpyCatcher (Q03188 1-600): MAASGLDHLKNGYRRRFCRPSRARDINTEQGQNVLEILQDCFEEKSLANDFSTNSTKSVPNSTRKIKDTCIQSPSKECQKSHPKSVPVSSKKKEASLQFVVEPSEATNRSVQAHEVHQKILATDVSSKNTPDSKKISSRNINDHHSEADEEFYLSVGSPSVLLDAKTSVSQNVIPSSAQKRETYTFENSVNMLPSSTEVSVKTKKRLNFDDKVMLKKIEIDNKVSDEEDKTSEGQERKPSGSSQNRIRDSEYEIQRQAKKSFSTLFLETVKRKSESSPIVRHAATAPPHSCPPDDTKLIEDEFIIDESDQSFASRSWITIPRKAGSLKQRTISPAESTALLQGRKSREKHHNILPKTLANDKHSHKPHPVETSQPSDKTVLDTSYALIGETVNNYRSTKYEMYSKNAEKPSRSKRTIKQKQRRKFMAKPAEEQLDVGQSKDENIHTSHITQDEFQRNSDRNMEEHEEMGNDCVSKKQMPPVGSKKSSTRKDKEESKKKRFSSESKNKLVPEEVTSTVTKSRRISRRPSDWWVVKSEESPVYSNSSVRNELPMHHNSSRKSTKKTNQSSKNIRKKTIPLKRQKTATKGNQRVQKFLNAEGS

Kd [1] | Kd [2] | Binder
290 nM | – | B1
137 nM | 404 nM | B2
